Measurements published in PMC8692065 (Cell Reports, 2021).

Biological target: SARS-CoV-2 S1 (Avi-tag, biotinylated) (SARS-CoV-2, original strain, UniProt P0DTC2, biotinylated (Avi-tag))
Test: BLI

B1: mAb-50, purified antibody (antibody, V domains shown)
VH: QVQLQESGPGLVNPSETLSLTCGVSGYSISSGFYWGWIRQPPGKGLEWIGSIYHRGSTFYNPSLKSRVTISVDRSKNQFSLRLSSVTAADTAVYYCARGEVLTSGGYNARFDPWGQGTLVTVSS
VL: DIQMTQSPSTLSASVGDSVTITCRASQSISLWLAWYQQKPGKAPKVLIYETSSLESGVPSRFSGSGAGTEFTLTISSLQPDDFATYYCQQYISYPLTFGGGTKVEIK
Kd: 1.61 nM

B2: mAb-64, purified antibody (antibody, V domains shown)
VH: EVQLVETGGGLIQPGGSLRLSCAASGFTVSSNYMSWVRQAPGKGLEWVSVIYSGGSTYYADSVKGRFTISRDNSKNTLYLQMNSLRAEDTAVYYCARDLHIYGMDVWGQGTTVTVSS
VL: DIQMTQSPSSVSASVGDRVTITCRASQGISSWLAWYQQKPGKAPKLLIYAASSLQSGVPSRFSGSGSGTDFTLTISSLQPEDFATYYCQQANSFPNFGGGTKVEIK
Kd: 1.96 nM
